Measurements as given in patent US20160145328A1 (published 2016).
Numbering of substitutions follows the chain as printed. In names and notes the source's numbering stands.

B1: DP47 VH T28D + Y32D (other, name in Kabat numbering)
VH: QVQLLESGGGLVQPGGSLRLSCAASGFDFSSDAMSWVRQAPGKGLEWVSAISGSGGSTYYADSVKGRFTISRDNSKNTLYLQMNSLRAEDTAVYYCAKSYGAFDYWGQGTLVTVSS
B2: DP47 VH S35D + S30D (other, name in Kabat numbering)
VH: B1 VH with D28T, S30D, D32Y, S35D
B3: DP47 VH T28D + A33D (other, name in Kabat numbering)
VH: B1 VH with D32Y, A33D
B4: DP47 VH T28D + S35D (other, name in Kabat numbering)
VH: B1 VH with D32Y, S35D
B5: DP47 VH S35D + S31D (other, name in Kabat numbering)
VH: B1 VH with D28T, S31D, D32Y, S35D
B6: DP47 VH S35D + Y32D (other, name in Kabat numbering)
VH: B1 VH with D28T, S35D
B7: DP47 VH T28D + S30D (other, name in Kabat numbering)
VH: B1 VH with S30D, D32Y
B8: DP47 VH S35D + A33D (other, name in Kabat numbering)
VH: B1 VH with D28T, D32Y, A33D, S35D
B9: DP47 VH T28D + S31D (other, name in Kabat numbering)
VH: B1 VH with S31D, D32Y
B10: DP47 VH A33D (other, name in Kabat numbering)
VH: B1 VH with D28T, D32Y, A33D
B11: DP47 VH T28R (other, name in Kabat numbering)
VH: B1 VH with D28R, D32Y
B12: DP47 VH S31D (other, name in Kabat numbering)
VH: B1 VH with D28T, S31D, D32Y
B13: DP47 VH Y32E (other, name in Kabat numbering)
VH: B1 VH with D28T, D32E
B14: DP47 VH S35G (other, name in Kabat numbering)
VH: B1 VH with D28T, D32Y, S35G
B15: DP47 VH Q39D (other, name in Kabat numbering)
VH: B1 VH with D28T, D32Y, Q39D
B16: DP47 VH Y32D (other, name in Kabat numbering)
VH: B1 VH with D28T
B17: DP47 VH A40D (other, name in Kabat numbering)
VH: B1 VH with D28T, D32Y, A40D
B18: DP47 VH T28E (other, name in Kabat numbering)
VH: B1 VH with D28E, D32Y
B19: DP47 VH T28D (other, name in Kabat numbering)
VH: B1 VH with D32Y
B20: DP47 VH A33E (other, name in Kabat numbering)
VH: B1 VH with D28T, D32Y, A33E
B21: DP47 VH G26E (other, name in Kabat numbering)
VH: B1 VH with G26E, D28T, D32Y
B22: DP47 VH S30D (other, name in Kabat numbering)
VH: B1 VH with D28T, S30D, D32Y
B23: DP47 VH S30E (other, name in Kabat numbering)
VH: B1 VH with D28T, S30E, D32Y
B24: DP47 VH S35E (other, name in Kabat numbering)
VH: B1 VH with D28T, D32Y, S35E
B25: DP47 VH A40E (other, name in Kabat numbering)
VH: B1 VH with D28T, D32Y, A40E
B26: DP47 VH S35D (other, name in Kabat numbering)
VH: B1 VH with D28T, D32Y, S35D
B27: DP47 VH Q39E (other, name in Kabat numbering)
VH: B1 VH with D28T, D32Y, Q39E
B28: DP47 VH G26D (other, name in Kabat numbering)
VH: B1 VH with G26D, D28T, D32Y
B29: DP47 VH S31E (other, name in Kabat numbering)
VH: B1 VH with D28T, S31E, D32Y
B30: DP47 VH S53D (other, name in Kabat numbering)
VH: B1 VH with D28T, D32Y, S54D
B31: DP47 VH A50D (other, name in Kabat numbering)
VH: B1 VH with D28T, D32Y, A50D
B32: DP47 VH S52D (other, name in Kabat numbering)
VH: B1 VH with D28T, D32Y, S52D
B33: DP47 VH G54D (other, name in Kabat numbering)
VH: B1 VH with D28T, D32Y, G55D

target: T1, protein A (UniProt P38507 37-477); assay: Heat/Cool phage ELISA: phage-displayed VH, 80 C 10 min then 4 C 10 min, captured on coated protein A; signal as % of untreated sample
T1 construct: also called Protein A superantigen
Experimental: (§1) The aggregation-resistance of clones was analyzed by measuring retention of signal after heat incubation in a phage ELISA format (McCafferty et al., 1990; Jespers et al., 2004). Wells of a Nunc Maxisorp Immuno-plate were coated overnight with protein A at a concentration of about 5 μg/ml in phosphate-buffered saline (PBS). The plate was washed once with PBS and blocked with about 4% (w/v) milk powder diluted in PBS (MPBS). Single colonies were picked from agar plates and grown overnight in 2×TY medium (containing about 16 g/L tryptone; about 10 g/L yeast extract; about 5 g/L NaCl, pH 7.0) supplemented with about 15 μg/ml tetracycline shaking at about 30° C. Cells were removed by centrifugation and phages were biotinylated directly in the culture supernatant by adding biotin-PEO₄-N-hydroxysuccinimide (Pierce; about 50 μM final concentration). For heat selection, supernatant was first incubated at about 80° C. for about 10 min and then at about 4° C. for about 10 min. Supernatant was added to the blocked ELISA wells. After three washes with PBS, bound phage particles were detected using an Extravidin-HRP conjugate (Sigma) and 3,3′,5,5′-tetramethylbenzidine (TMB) substrate. Absorbance was calculated by subtracting measurements at 450 and 650 nm.
VH domains were produced comprising negatively charged amino acids at positions 28 and/or 35 in CDR1 of DP47 and at least one other position, as set out in Table 7. Aggregation-resistance of the VH domains was assessed using the “Heat/Cool” assay as described in Example 1.2.

| Binder | Retained binding to protein A (%) |
| --- | --- |
| B1 | 64.7 |
| B2 | 43.5 |
| B3 | 62 |
| B4 | 45.8 |
| B5 | 48.3 |
| B6 | 61 |
| B7 | 39.4 |
| B8 | 40.3 |
| B9 | 44.8 |

target: T1, protein A; assay: as above; remark: another data set of the same source
Experimental: as §1
Single amino acid changes in the CDR1 region of the DP47 VH domain, and combinations thereof, were constructed and tested for aggregation-resistance, as detailed above (see the Materials and Methods section). […] Correctly folded VH were captured by protein A ELISA and the absorbance signal of the treated sample was calculated as a percentage of the untreated sample.

| Binder | Retained binding to protein A [%] |
| --- | --- |
| B10 | 26 |
| B11 | 2 |
| B12 | 31 |
| B13 | 41 |
| B14 | 4 |

target: T1, protein A; assay: as above; remark: another data set of the same source
Experimental: as §1
To identify additional residues in CDR1 that confer aggregation-resistance on VH, surface-exposed residues of DP47 between positions 26 to 35 (numbering according to the Kabat numbering system) were substituted for aspartic acid (D) or glutamic acid (E). Framework residues at positions 39 and 40 were also substituted for aspartic acid (D) or glutamic acid (E). […] Correctly folded VH were captured by protein A ELISA and the absorbance signal of the treated sample was calculated as a percentage of the untreated sample.

| Binder | Retained binding to protein A (%) |
| --- | --- |
| B10 | 10 |
| B15 | 3.7 |
| B16 | 41.8 |
| B17 | 2.8 |
| B18 | 6.5 |
| B19 | 25.1 |
| B20 | 2 |
| B21 | 1.8 |
| B22 | 21.8 |
| B23 | 2.1 |
| B24 | 4.5 |
| B25 | 1.9 |
| B26 | 12.8 |
| B12 | 21.3 |
| B13 | 24.8 |
| B27 | 2.5 |
| B28 | 6.1 |
| B29 | 6.1 |

target: T1, protein A; assay: as above; remark: another data set of the same source
Experimental: as §1
To identify residues in CDR2 that confer aggregation-resistance on a VH containing protein aspartic acid (D) was substituted for surface-exposed residues within the putative CDR2 of DP47 VH with aspartic acid (positions 50, 52, 52a, 53, 54).

| Binder | Retained binding to protein A (%) |
| --- | --- |
| B30 | 3.8 |
| B31 | 2.9 |
| B32 | 3.9 |
| B33 | 1.3 |
